Results reported in paper PMC4452343, “Monitoring β-arrestin recruitment via β-lactamase enzyme fragment complementation: purification of peptide E as a low-affinity ligand for mammalian bombesin receptors” (PLoS ONE, 2015).

Assays:
[1] = molecular target: T1, human bombesin receptor subtype 3 (human, UniProt P32247 1-399); assay: cell-based or functional assay
T1 sequence (looked up): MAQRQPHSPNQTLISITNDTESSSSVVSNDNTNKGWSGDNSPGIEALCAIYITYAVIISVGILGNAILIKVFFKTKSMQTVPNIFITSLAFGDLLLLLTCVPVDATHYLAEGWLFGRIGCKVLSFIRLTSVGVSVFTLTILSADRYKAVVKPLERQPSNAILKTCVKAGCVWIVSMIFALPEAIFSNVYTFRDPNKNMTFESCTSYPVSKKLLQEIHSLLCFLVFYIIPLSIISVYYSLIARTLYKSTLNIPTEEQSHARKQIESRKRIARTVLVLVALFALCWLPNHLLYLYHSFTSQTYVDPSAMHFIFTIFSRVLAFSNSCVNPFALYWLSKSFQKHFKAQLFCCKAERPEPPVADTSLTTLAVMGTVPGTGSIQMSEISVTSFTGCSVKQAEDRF

[2] = molecular target: gastrin-releasing peptide receptor (human, UniProt P30550 1-384); assay: cell-based or functional assay
gastrin-releasing peptide receptor, sequence (P30550 whole entry): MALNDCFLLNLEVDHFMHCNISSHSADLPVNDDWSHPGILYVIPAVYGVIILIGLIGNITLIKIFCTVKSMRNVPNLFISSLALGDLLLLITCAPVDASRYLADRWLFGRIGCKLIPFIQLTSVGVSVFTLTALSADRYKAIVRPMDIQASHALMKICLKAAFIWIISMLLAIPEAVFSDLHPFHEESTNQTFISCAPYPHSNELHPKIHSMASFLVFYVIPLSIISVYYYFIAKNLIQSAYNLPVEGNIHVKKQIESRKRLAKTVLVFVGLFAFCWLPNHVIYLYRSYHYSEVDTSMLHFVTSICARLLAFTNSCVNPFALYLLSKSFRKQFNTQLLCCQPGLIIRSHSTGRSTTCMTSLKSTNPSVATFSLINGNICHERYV

[3] = molecular target: neuromedin B receptor (human, UniProt P28336 1-390); assay: cell-based or functional assay
neuromedin B receptor, sequence (P28336 whole entry): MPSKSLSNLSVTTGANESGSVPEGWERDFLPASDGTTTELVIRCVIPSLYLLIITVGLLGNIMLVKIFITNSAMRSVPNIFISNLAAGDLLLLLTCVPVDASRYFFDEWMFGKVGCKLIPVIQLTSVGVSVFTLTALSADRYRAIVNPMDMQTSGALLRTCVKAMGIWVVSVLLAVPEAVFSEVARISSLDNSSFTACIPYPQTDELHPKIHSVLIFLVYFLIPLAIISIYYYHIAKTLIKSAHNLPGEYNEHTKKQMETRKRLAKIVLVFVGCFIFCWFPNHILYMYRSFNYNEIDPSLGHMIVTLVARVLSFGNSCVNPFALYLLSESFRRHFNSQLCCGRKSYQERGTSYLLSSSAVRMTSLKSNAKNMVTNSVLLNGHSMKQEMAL

[4] = molecular target: T1, human bombesin receptor subtype 3; assay: radioligand binding; competition; 5 μg membrane fraction of CHO-hBRS3 cells with 0.1 nM radioligand and various concentrations of competitor, 2 h at room temperature, 50mM Tris-HCl (pH7.5), 5mM MgCl2; bound ligand separated on a GF/C filter; details: one partner purified

B1: peptide E (peptide)
chain: YGGFMRRVGRPEWWMDYQKRYGGFL
notes: peptide E, a partially processed product of the opioid peptide precursor proenkephalin A; 25 residues; also called P2; synthetic peptide E; source: synthetic peptide (chemically synthesized)
**Q.** How did the “EC50 of NFAT-luciferase reporter activation in CHO cells expressing hBRS3” value [1] turn out when B1 was run?
**A.** The value was 500 nM.

**Q.** What about the “EC50 of NFAT-luciferase reporter activation in CHO cells expressing hGRPR” value [2] of the same binder?
**A.** The value was 3500 nM.

**Q.** And the “EC50 of NFAT-luciferase reporter activation in CHO cells expressing hNMBR” value [3]?
**A.** The value was 1100 nM.

**Q.** What about the IC50 [4] of the same binder?
**A.** Its IC50 is 361 nM.
